Data taken from patent US20080274112A1, “Nogo Receptor Antagonists” (priority 2003, published 2008).

How the values were obtained:
[1] = target: T1, sNogoR344-Fc (residues 26-344 of rat Nogo receptor-1) (Rattus norvegicus, UniProt Q99M75, A303T/C287S/C43R/E284G/T53A); assay: Inhibition of 125I-Nogo66 binding to sNogoR344-Fc on SPA beads; conditions: curve-fit
T1 construct: amino acid residues 26-344 of rat Nogo receptor-1; made in house
T1 sequence (Q99M75 26-344 C43R/T53A/E284G/C287S/A303T): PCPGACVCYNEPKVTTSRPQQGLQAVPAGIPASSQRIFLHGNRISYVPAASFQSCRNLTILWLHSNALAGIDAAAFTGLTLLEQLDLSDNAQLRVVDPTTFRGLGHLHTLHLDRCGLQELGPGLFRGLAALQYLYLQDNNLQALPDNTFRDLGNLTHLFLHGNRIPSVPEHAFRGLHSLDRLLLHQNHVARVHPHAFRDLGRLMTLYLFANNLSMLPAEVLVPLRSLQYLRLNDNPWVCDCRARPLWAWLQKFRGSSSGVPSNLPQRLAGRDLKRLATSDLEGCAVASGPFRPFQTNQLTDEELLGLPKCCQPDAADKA
Protocol: 0.5 μg of a soluble Nogo receptor-1 fusion protein comprising amino acid residues 26-344 of rat Nogo receptor-1 and the hinge and Fc region of the rat IgG1 molecule (sNogoR344-Fc) produced as described below was immobilized on 250 μg of protein-A- or wheatgerm agglutinin-conjugated SPA beads (Amersham Pharmacia Biotech) for 2 hours at 25° C. SPA beads coupled with Fc-sNogoR-1, anti-Nogo receptor-1 mAb and 1 μl ^125I-Nogo66 (Amersham, 2000 Ci/mmol, 1 nM) in 50 μl of the HEPES-buffered incubation medium (10 mM HEPES, pH 7.4, 0.1% bovine serum albumin, 0.1% ovalbumin, 2 mM MgCl2, 2 mM CaCl2 and protease inhibitors) was added to each sample well. After 16 hours, radioactivity was measured in quadruplicate samples using a TopCount® (Packard). IC50 values were calculated from a curve-fit analysis (FIG. 3) (PRISM, GraphPad Software, NJ). In some experiments, we also used AP-ligand conjugates (e.g. AP-Nogo66) and detected binding by monitoring alkaline phosphatase activity. We also assayed the ability of the mAbs to block binding of the ligands MAG-Fc and AP-OM-gp to Nogo receptor-1.

[2] = target: polypeptide p-617 (SEQ ID NO: 1) (Rattus norvegicus, UniProt Q99M75); assay: Specificity ELISA on polypeptide p-617; assay type: binding
Text: To determine the specificity of the monoclonal and Fab-phage antibodies produced in Examples 1 and 2, we performed an ELISA using a panel of Nogo receptor-1 polypeptides. The panel consisted of sNogoR310-Fc (a fusion protein comprising amino acids 26-310 of rat Nogo receptor-1 and a rat Fc fragment), sNogoR344-Fc (see supra), polypeptide p-617 (SEQ ID NO: 1), polypeptide p-618 (a 19-amino acid polypeptide from the LRR7 region of rat Nogo receptor-1; FIG. 2; SEQ ID NO: 11) and polypeptides p-4 and p-5 (polypeptides from the LRR5 and LRRCT regions of Nogo receptor-1, respectively). Ovalbumin and BSA were used as controls.

DRG neurons = assay: Neurite outgrowth assay on CNS myelin (Example 5); assay type: cell-based; conditions: P3-4 rat DRG; 15 μg/ml mAb 7E11
Protocol: To test the ability of the monoclonal and Fab-phage antibodies produced above to lessen the inhibitory effect of CNS myelin on neurons, Lab-Tek® culture slides (4 wells) were coated with 0.1 mg/ml poly-D-lysine (Sigma®). CNS myelin or PBS was spotted as 3 μl drops. Fluorescent microspheres (Polysciences) were added to the myelin/PBS to allow later identification of the drops (Grandpre et al, Nature 403, 2000). Lab-Tek® slides were then rinsed and coated with 10 μg/ml laminin (Gibco™). Dorsal root ganglions (DRG's) from P3-4 Sprague Dawley rat pups were dissociated with 1 mg/ml collagenase type 1 (Worthington), triturated with fire-polished Pasteur pipettes pre-plated to enrich in neuronal cells and finally plated at 23,000 cells/well on the pre-coated Lab-Tek® culture slides. The culture medium was F12 containing 5% heat inactivated donor horse serum, 5% heat inactivated fetal bovine serum and 50 ng/ml MNGF and incubated at 37 °C and 5% CO2 for 6 hours. Fifteen μg/ml of mAb 7E11 was added immediately after plating.
Slides were fixed for 20 minutes with 4% paraformaldehyde containing 20% sucrose and stained for the neuronal marker anti beta-III-tubulin (Covance TUJ1) diluted 1:500. […] 5× digital images were acquired with OpenLab™ software and analysed by using the MetaMorph® software for quantification of neurite outgrowth.

human Nogo receptor-1 = target: T2, human Nogo receptor-1 (Homo sapiens, UniProt Q9BZR6); assay: Immunohistochemical staining of fixed and live cells expressing human Nogo receptor-1; assay type: cell-based
T2 construct: expressed in transfected cells; host or cells: COS-7 or 293 cells
T2 sequence (Q9BZR6 27-447): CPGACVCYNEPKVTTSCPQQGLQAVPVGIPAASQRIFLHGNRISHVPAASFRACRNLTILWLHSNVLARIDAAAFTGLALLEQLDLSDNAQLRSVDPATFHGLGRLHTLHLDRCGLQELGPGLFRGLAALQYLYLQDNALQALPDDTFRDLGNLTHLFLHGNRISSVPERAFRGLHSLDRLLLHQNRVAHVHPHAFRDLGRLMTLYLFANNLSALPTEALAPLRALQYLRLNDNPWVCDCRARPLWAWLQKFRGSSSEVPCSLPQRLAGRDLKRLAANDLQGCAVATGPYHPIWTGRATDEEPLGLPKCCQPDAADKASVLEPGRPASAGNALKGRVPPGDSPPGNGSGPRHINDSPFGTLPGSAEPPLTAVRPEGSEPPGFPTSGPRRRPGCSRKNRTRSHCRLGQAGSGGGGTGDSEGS
Protocol: To further characterize the binding properties of anti-Nogo receptor-1 mAbs produced as described in Example 1, we compared binding to both fixed and live COS-7 or 293 cells expressing rat or human Nogo receptor-1.
Nogo receptor-1 transfected and non-transfected cells were plated in 8-well Lab-Tek® culture slides, fixed with 4% paraformaldehyde for 15 minutes, blocked with 10% normal goat serum, 0.1% Triton X-100 in PBS for 1 hour. Mab 7E11 was added at 15 μg/ml and 1.5 μg/ml in blocking solution and incubated for 2 hours at room temperature; Alexa®-conjugated secondary antibody anti-mouse (Molecular Probes) was incubated at a 1:300 dilution in blocking solution for 1 hour; DAPI was added at 5 μg/ml to the secondary antibody to label all nuclei.
Transfected and non-transfected cells were plated in 8 well Lab-Tek® culture slides, blocked with FACS buffer (containing 4% donor horse serum) for 30 minutes at 4° C., incubated with 7E11 at 15 μg/ml and 1.5 μg/ml in FACS buffer for 1 hour at 4° C., rinsed and incubated with secondary antibody anti-mouse-Alexa® (1:300 in FACS buffer) for 30 minutes at 4° C.

- IC50 [1]: 400 nM
- binding to polypeptide p-617 [2]: specifically bound
- binding to cells expressing human Nogo receptor-1 (human Nogo receptor-1): bound both fixed and live cells
B1: 7E11: murine monoclonal anti-Nogo receptor-1 antibody, IgG1 kappa, ATCC PTA-4587; immunogen rat Nogo receptor-1 residues 110-125 (antibody, V domains shown)
VH: VQLQESGAELVMPGASVKMSCKASGYTFTDYWMHWVKQRPGQGLEWIGAIDPSDSYSSYNQNFKGKATLTVDGSSSTAYMQLSSLTSEDSAVYYCARRITEAGAWFAYWGQGTTVT
VL: DVVMTQTPLSLPVSLGDQASISCRSSQSLVHSNGNTYLHWYLQKPGQSPKLLIYKVSNRFSGVPDRFSGSGSGTDFTLKISRVDAEDLGVYFCSQSTHVPFTFGGGTKLEIKRADAAPTVSISHH
- protection from myelin-mediated inhibition of neurite outgrowth (DRG neurons): protected
